For one test, the system named is MBT2 tumors. Kind of test: MBT2 syngeneic bladder cancer mouse model, combination with anti-PD-1. It is filed as in vivo. As to conditions: Ab3 10 and 30 mg/kg, Ab2 3 and 10 mg/kg, in combination with anti-PD-1. An excerpt:
This is a very aggressive and fast-growing tumor model, and is very difficult to overcome tumor progression with drug treatment.
Treatment with isotype control was used as a control group (data not shown).
Percent tumor growth delay (% TGD) is defined as the increase in the median time to endpoint in a treatment group compared to the untreated control, expressed as a percentage of the median time to endpoint (TTE) of the control:
T=median TTE for treatment

Test [1] relates to fibrosis-associated genes (Col1a1, Col3a1, Fn1, Lox, Lox/2, Acta2, Mmp2, Itga11). Kind of test: Unilateral ureteral obstruction (UUO) model of acute kidney fibrosis, qPCR of fibrosis-associated genes. The note with it: i.p. days −1 and 4, kidney qPCR day 5. It is filed as in vivo, mouse. Here is the method: Inhibition of acute fibrosis by anti-TGFβ1 antibodies was tested in the unilateral ureteral obstruction (UUO) model of acute kidney fibrosis. In this model, fibrosis is induced in male mice by permanent surgical ligation of the left ureter on study day 0.
Kidneys were collected at the end of study, on day 5 after surgery, and RNA was harvested from these tissues. The degree of fibrosis induction was subsequently assessed by quantitative polymerase chain reaction (qPCR) for a panel of fibrosis-associated genes, including Collagen I (Col1a1), Collagen III (Col3a1), Fibronectin 1 (Fn1), Lysyl Oxidase (Lox), Lysyl Oxidase-like 2 (Lox/2), Smooth muscle actin (Acta2), Matrix metalloprotease (Mmp2), and Integrin alpha 11 (Itga11) (Rolfe, Irvine, Grobbelaar, & Linge, 2007) (Tamaki et al., 1994) (Bansal et al., 2017)(Leaf& Duffield, 2016).

Another test deals with T1, human proTGFβ1 C4S/R249A (Homo sapiens, UniProt P01137, C33S/R278A).
T1 construct: made in house; host or cells: expi293 (kifunensine-treated), co-expressed with Ab2-Fab
Kind of test: X-ray crystallography of proTGFβ1:Ab2-Fab:AbX-Fab ternary complex. As to conditions: numbering after removal of signal sequence. It is filed as binding. An excerpt:
In this work, an uncleavable human proTGFβ1 C4S/R249A variant was used that spans residues 30-390 based on the full-length sequence of human proTGFβ1 (Uniprot ID P01137). The numbering system that will be used for the rest of this document will designate position 1 as the first amino acid residue after the removal of the signal sequence for proTGFβ isoforms. The C4S mutation renders proTGFβ1 not capable of covalent crosslinking to any known presenting molecules, e.g. LTBPs and GARP, while the R249A renders proTGFβ1 resistant to proprotein convertase/furin protease cleavage, thus maintaining proTGFβ1 in its uncleaved, proprotein form. ProTGFβ1 C4S/R249A was co-expressed with C-terminally 6×-His tagged Ab2-Fab in kifunensine-treated expi293 mammalian expression system to reduce N-linked glycosylation events. The proTGFβ1 C4S/R249A:Ab2-Fab was affinity purified, treated with endoglycosidase H and purified by gel filtration. The proTGFβ1 C4S/R249A:Ab2-Fab complex was then incubated with AbX-Fab to generate the ternary complex. The AbX Fab in this context was used as an auxiliary protein, which acts as a crystallization chaperone to increase the probability of obtaining protein crystals.
Crystallization experiments were performed at room temperature in a sitting drop format. […]

The test system of test [2] is Matrix-associated proTGFβ1 vs Cell-associated proTGFβ1. Kind of test: MSD-SET binding, matrix vs cell bias (G/D). The note with it: ratio of cell average KD to ECM average KD. On the set-up: species or system human. An excerpt:
(§1) Column (A) of the table provides monoclonal antibodies with discrete amino acid sequences. […] Columns (B), (C), (E) and (F) provide affinities of each of the listed antibodies, measured in KD, towards the antigen complex as indicated, respectively. […] Similarly, Average KD values calculated from (E) and (F) are shown in the corresponding column (G), which collectively represents affinities of the antibodies to cell-surface or cell-associated proTGF complexes. Finally, relative ratios between the average KD values from columns (D) and (G) are expressed as fold bias” in column (H). Thus, the greater the numerical of column (H) is, the greater bias exists for the particular antibody, when comparing binding preferences of the antibody for matrix-associated complexes to cell-surface complexes. This is one way of quantitatively representing and comparing inherent bias of antibodies to their target complexes. Such analyses may be useful in guiding the selection process for a candidate antibody for particular therapeutic use. Select antibodies of the present disclosure, as measured by MSD-SET, show context-bias (i.e., greater than five-fold bias) or unbias (i.e., less than 5-fold bias) toward matrix-associated complexes over cell-associated complexes. […] Without being bound by a particular theory, the differences in the kinetics of the assays and/or differences in the nature of recombinant proteins may account for the noticeable differences seen in Ab19 binding to hGARP complexes observed in the above Octet assay (see Table 6) compared to the below MSD-SET assay (see Table 7 below). For example, the Octet assay measures kinetic on and off rates, while the MSD-SET assay measures binding at equilibrium. In addition, the recombinant antibodies used in the Octet assay were expressed as IgG1 antibodies in yeast, while the antibodies used in the MSD assay were expressed as IgG4 antibodies in mammalian cells.

In test [3] the target is Matrix-associated proTGFβ1. Kind of test: MSD-SET binding, ECM average of hLTBP1 and hLTBP3 complexes. On the set-up: species or system human. As to conditions: average KD of (B) and (C), read-out: (D) ECM AVRG.
Text: as §1

The results in this text go back to patent US20210340238A1, “TGFß1 INHIBITORS AND USE THEREOF” (Scholar Rock, Inc., priority 2018, published 2021).

Entries after “also recorded” stand apart in the source; their conditions may differ.

T1 sequence (P01137 30-390 C33S/R278A): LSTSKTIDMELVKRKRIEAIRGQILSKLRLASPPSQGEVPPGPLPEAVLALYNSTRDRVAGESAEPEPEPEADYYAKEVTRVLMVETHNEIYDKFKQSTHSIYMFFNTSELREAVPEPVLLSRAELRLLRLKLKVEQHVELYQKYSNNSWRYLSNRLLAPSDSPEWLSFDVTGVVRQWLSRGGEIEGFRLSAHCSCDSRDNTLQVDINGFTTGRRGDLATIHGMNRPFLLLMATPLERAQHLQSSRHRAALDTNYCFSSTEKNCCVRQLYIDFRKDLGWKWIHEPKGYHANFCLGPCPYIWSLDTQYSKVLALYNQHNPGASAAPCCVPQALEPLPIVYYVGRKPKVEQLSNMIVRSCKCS

B1: Ab2: isoform-selective inhibitor of TGFβ1 activation; VH SEQ ID NO: 13, VL SEQ ID NO: 15; human IgG4 (antibody, V domains shown)
VH: EVQLLESGGGLVQPGGSLRLSCAASGFTFADYAMTWVRQAPGKGLEWVSAISGSGAATYFADSVKGRFTISRDNSKNTLYLQMNSLRAEDTAVYYCARVSSGHWDFDYWGQGTLVTVSS
VL: DIQLTQSPSSLSASVGDRVTITCRASQSISSYLNWYQQKPGKAPKLLIYAASNLQSGVPSRFSGSGSGTDFTLTISSLQPEDFATYYCQQTYTVPLTFGGGTKVEIK
modifications: human IgG4 constant regions
For the molecule B1, the “Tumor growth compared to PD-1 alone” value in the test with MBT2 tumors is listed as “delayed tumor growth”. The “Fibrosis-associated gene expression in UUO kidney vs UUO+IgG” value in test [1] (3 mg/kg/wk) is “trend towards reduced Col3a1 expression, though this effect does not reach statistical significance; also recorded: reduction of both Fn1 and, particularly, Lox/2 (P=0.06), though suppression of neither gene is statistically significant; also recorded: Col1a1 and Lox expression were also reduced”; in test [1] (10 mg/kg/wk), “suppressed fibrotic gene induction by UUO; also recorded: highly significant (P<0.005 vs UUO+IgG) inhibition of both Fn1 and Lox/2; also recorded: all genes examined except Mmp2 showed a statistically significant change in expression”. The “Epitope on proTGFβ1 from crystal structure” value with human proTGFβ1 C4S/R249A is given as “linear epitope formed by residues 35-43”. Also, the “(H) G/D (fold bias)” value in test [2] stood at 8.66 fold. Also, in test [3], the Kd is 266 pM.
